Measurements reported in publication PMC10965072.

Biological target: TF-mCCP1 (maize (inbred line B73))
Sequence (Q10716 137-371): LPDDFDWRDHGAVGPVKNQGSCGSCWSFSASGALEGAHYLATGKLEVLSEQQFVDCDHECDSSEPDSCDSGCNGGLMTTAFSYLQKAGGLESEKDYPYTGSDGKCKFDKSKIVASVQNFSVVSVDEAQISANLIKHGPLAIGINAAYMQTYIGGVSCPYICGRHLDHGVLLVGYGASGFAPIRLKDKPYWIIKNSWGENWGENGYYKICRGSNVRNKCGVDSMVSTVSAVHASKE

In the case of GST-NIa-Pro (enzyme), the proteolytic activity of recombinant mCCP1 (TF tag removed) on a fluorescein-labeled casein substrate after pre-treatment with 0.5 μM GST-NIa-Pro, against GST is reported as 72 % decrease.
